Measured values as given in patent US20030229005.

Legend:
Dnp-GPVNFRVC(Me)-NH2 = biological target: T1, Dnp-GPVNFRVC(Me)-NH2
T1 chain: GPVNFRVX

Sequence of type IV collagen, P08572 (P08572 26-1712, chain 1 of 2): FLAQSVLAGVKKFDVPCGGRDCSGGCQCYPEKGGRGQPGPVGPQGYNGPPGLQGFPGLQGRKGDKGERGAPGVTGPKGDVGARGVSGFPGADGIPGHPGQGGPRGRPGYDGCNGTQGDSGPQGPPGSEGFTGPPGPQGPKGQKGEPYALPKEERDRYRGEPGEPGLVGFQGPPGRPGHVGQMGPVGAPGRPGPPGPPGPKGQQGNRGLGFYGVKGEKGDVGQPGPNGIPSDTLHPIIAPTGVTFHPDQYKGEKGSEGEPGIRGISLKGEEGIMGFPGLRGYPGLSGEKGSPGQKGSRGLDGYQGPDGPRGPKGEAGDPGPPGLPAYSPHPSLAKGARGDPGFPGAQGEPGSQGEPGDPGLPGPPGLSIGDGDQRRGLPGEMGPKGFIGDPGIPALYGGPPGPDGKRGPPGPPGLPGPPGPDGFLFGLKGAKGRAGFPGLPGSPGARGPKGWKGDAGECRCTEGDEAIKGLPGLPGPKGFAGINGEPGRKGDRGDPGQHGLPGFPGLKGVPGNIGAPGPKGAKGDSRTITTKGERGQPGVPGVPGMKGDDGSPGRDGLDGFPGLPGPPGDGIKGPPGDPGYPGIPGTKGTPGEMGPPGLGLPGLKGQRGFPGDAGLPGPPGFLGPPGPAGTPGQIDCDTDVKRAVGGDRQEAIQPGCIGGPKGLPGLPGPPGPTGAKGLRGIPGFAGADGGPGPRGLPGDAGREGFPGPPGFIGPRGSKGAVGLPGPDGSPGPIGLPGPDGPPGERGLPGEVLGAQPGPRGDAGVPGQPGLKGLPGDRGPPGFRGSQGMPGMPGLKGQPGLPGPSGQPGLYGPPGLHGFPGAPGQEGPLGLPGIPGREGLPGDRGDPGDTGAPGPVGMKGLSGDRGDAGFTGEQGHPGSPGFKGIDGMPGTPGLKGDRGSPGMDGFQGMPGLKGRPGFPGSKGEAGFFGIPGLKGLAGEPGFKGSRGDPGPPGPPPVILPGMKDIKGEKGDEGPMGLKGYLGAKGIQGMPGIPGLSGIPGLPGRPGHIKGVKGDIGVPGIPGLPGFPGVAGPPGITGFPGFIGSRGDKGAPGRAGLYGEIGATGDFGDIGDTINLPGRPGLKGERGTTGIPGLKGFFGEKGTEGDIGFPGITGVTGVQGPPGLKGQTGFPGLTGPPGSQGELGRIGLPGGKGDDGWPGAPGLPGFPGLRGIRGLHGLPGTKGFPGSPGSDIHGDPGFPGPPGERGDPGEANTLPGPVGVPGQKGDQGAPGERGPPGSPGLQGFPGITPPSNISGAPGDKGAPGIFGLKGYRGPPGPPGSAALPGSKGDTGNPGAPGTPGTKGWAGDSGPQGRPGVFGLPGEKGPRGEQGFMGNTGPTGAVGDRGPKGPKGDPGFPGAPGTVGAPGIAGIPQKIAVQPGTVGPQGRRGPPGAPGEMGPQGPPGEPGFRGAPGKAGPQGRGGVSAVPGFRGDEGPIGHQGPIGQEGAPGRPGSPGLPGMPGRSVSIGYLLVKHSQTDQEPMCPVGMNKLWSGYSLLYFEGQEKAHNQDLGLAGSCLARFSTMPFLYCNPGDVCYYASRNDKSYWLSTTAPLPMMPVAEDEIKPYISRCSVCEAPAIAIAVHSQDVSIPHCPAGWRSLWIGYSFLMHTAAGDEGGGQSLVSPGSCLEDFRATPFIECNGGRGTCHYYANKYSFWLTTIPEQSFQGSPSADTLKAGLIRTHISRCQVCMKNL
Sequence of type IV collagen, P08572 (chain, as listed by the source, chain 2 of 2): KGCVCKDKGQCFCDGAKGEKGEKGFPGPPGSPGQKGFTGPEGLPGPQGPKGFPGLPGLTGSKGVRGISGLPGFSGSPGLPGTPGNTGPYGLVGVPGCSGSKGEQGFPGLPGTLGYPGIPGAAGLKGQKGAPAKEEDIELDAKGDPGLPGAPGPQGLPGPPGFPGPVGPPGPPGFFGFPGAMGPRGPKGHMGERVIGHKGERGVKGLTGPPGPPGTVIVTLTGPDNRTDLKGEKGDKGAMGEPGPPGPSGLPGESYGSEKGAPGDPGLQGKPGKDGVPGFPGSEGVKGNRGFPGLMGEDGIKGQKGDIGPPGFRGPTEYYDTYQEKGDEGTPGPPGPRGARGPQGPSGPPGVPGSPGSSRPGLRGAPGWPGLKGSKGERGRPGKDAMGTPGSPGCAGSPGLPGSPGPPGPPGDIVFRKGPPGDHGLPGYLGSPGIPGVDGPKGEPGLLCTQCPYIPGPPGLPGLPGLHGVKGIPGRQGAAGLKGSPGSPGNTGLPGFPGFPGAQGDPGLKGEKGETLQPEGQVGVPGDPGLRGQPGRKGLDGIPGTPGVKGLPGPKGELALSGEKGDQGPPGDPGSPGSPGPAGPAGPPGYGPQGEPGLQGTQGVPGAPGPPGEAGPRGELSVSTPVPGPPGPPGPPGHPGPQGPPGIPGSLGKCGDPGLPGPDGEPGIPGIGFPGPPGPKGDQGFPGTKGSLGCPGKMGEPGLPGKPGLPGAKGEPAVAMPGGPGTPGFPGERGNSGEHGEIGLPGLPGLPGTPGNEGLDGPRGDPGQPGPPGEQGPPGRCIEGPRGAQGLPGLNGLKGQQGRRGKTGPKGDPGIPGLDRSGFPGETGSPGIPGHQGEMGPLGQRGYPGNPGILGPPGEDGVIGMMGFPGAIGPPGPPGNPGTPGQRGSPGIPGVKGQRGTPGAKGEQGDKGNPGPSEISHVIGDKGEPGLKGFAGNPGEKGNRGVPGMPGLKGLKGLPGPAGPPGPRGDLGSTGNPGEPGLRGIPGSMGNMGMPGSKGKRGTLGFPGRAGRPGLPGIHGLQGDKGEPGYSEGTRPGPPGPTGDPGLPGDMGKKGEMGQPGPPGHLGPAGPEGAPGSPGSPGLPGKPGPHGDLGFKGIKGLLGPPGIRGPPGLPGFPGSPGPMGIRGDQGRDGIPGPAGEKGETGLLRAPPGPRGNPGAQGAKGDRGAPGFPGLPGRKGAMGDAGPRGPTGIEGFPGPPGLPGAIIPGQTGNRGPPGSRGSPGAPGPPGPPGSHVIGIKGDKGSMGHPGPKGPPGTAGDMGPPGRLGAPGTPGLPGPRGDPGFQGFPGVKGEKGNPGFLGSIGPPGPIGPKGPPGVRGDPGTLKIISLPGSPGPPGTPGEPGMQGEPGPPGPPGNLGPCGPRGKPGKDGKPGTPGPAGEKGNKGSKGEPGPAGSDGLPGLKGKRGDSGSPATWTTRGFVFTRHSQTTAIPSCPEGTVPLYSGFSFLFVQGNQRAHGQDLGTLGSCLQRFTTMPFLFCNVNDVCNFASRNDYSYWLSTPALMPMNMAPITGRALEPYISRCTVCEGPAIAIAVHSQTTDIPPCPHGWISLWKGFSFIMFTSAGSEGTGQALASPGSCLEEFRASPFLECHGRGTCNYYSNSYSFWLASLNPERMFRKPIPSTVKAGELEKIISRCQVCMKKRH

B1: collagenase 1 (protein)
chain: FVLTEGNPRWEQTHLTYRIENYTPDLPRADVDHAIEKAFQLWSNVTPLTFTKVSEGQADIMISFVRGDHRDNSPFDGPGGNLAHAFQPGPGIGGDAHFDEDERWTNNFREYNLHRVAAHELGHSLGLSHSTDIGALMYPSYTFSGDVQLAQDDIDGIQAIYGRSQNPVQPIGPQTPKACDSKLTFDAITTIRGEVMFFKDRFYMRTNPFYPEVELNFISVFWPQLPNGLEAAYEFADRDEVRFFKGNKYWAVQGQNVLHGYPKDIYSSFGFPRTVKHIDAALSEENTGKTYFFVANKYWRYDEYKRSMDPGYPKMIAHDFPGIGHKVDAVFMKDGFFYFFHGTRQYKFDPKTKRILTLQKANSWFNCRKN
For B1, the “cleavage seen on a gel” value (type IV collagen, P08572) was “Both collagenase 1 and gelatinase B processed type IV collagen under the conditions used in our experiments”.

B2: human Gelatinase-A (protein)
chain: YNFFPRKPKWDKNQITYRIIGYTPDLDPETVDDAFARAFQVWSDVTPLRFSRIHDGEADIMINFGRWEHGDGYPFDGKDGLLAHAFAPGTGVGGDSHFDDDELWTLGEGQVVRVKYGNADGEYCKFPFLFNGKEYNSCTDTGRSDGFLWCSTTYNFEKDGKYGFCPHEALFTMGGNAEGQPCKFPFRFQGTSYDSCTTEGRTDGYRWCGTTEDYDRDKKYGFCPETAMSTVGGNSEGAPCVFPFTFLGNKYESCTSAGRSDGKMWCATTANYDDDRKWGFCPDQGYSLFLVAAHEFGHAMGLEHSQDPGALMAPIYTYTKNFRLSQDDIKGIQELYGASPDIDLGTGPTPTLGPVTPEICKQDIVFDGIAQIRGEIFFFKDRFIWRTVTPRDKPMGPLLVATFWPELPEKIDAVYEAPQEEKAVFFAGNEYWIYSASTLERGYPKPLTSLGLPPDVQRVDAAFNWSKNKKTYIFAGDKFWRYNEVKKKMDPGFPKLIADAWNAIPDNLDAVVDLQGGGHSYFFKGAYYLKLENQSLKSVKFGSIKSDWLGC
In the case of B2, the Selectivity v. Coll-3, substrate 5 uM (Dnp-GPVNFRVC(Me)-NH2) is reported as 88 unitless and the “cleavage seen on a gel” value (type IV collagen, P08572) is reported as “No detectable cleavage was observed by gelatinase A in an earlier experiment”.
